Legend:
[1] = target: T1, CD22 receptor on the Daudi cell line (human, UniProt P20273 20-847); assay: cell-based or functional assay
T1 sequence (looked up): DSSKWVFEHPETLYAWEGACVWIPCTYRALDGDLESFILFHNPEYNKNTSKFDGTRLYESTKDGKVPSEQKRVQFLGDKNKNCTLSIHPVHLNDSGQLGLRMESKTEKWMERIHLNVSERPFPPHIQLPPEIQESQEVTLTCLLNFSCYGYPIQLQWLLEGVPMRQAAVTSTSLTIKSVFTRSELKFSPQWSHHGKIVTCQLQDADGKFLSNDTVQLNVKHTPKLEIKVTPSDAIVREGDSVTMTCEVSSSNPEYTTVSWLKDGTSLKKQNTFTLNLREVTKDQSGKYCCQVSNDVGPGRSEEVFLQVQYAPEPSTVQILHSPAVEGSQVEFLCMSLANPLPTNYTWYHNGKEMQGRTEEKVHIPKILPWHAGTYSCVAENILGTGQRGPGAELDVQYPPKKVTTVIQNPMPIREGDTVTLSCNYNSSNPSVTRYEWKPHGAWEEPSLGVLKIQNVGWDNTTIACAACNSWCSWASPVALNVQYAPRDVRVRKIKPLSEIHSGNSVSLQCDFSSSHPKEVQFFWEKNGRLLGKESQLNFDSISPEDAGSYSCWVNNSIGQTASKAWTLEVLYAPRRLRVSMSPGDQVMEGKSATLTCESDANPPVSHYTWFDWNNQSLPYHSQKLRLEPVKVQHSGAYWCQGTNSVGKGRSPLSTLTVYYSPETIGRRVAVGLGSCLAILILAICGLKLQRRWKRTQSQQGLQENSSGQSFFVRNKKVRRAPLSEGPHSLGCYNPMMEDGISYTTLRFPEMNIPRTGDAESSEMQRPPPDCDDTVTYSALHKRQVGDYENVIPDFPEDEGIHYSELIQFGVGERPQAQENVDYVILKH

[2] = target: T1, CD22 receptor on the Daudi cell line; assay: cell-based or functional assay; remark: listed apart in the source

B1: CAT-8015 (other)
VH: MEVQLVESGGGLVKPGGSLKLSCAASGFAFSIYDMSWVRQTPEKCLEWVAYISSGGGTTYYPDTVKGRFTISRDNAKNTLYLQMSSLKSEDTAMYYCARHSGYGTHWGVLFAYWGQGTLVTVSAKASGGPEGGSLAALTAHQACHLPLETFTRHRQPRGWEQLEQCGYPVQRLVALYLAARLSWNQVDQVIRNALASPGSGGDLGEAIREQPEQARLALTLAAAESERFVRQGTGNDEAGAANGPADSGDALLERNYPTGAEFLGDGGDVSFSTRGTQNWTVERLLQAHRQLEERGYVFVGYHGTFLEAAQSIVFGGVRARSQDLDAIWRGFYIAGDPALAYGYAQDQEPDARGRIRNGALLRVYVPRSSLPGFYRTSLTLAAPEAAGEVERLIGHPLPLRLDAITGPEEEGGRLETILGWPLAERTVVIPSAIPTDPRNVGGDLDPSSIPDKEQAISALPDYASQPGKPPREDLK
VL: MDIQMTQTTSSLSASLGDRVTISCRASQDISNYLNWYQQKPDGTVKLLIYYTSILHSGVPSRFSGSGSGTDYSLTISNLEQEDFATYFCQQGNTLPWTFGCGTKLEIK
modifications: Asn-358 partially deamidated to Asp-358 and iso-Asp-358 in the preparations tested (extent differs by pool)
For B1, the “Relative Potency (%) in apoptosis bioassay (Caspase-Glo 3/7, Daudi cells; EC50 of Reference Standard / EC50 of test sample); sample: QHP Eluate Pool, bench scale (16.5% pre-peak)” value [1] was 80%, the “Relative Potency (%) in apoptosis bioassay (Caspase-Glo 3/7, Daudi cells; EC50 of Reference Standard / EC50 of test sample); sample: QHP Load Pool, bench scale (53.8% pre-peak)” value [1] was 52% and the “Relative Potency (%) in apoptosis bioassay (Caspase-Glo 3/7, Daudi cells; EC50 of Reference Standard / EC50 of test sample); sample: QHP Eluate Pool, large scale (17% pre-peak)” value [2] was 75%. The “Relative Potency (%) in apoptosis bioassay (Caspase-Glo 3/7, Daudi cells; EC50 of Reference Standard / EC50 of test sample); sample: QHP Load Pool, large scale (50.3% pre-peak)” value [2] was 51%.

Reference: patent publication US20210395370A1 (AstraZeneca / MedImmune, published 2021)
